Test results as given in patent US20170137818, “APTAMER INHIBITING BIOLOGICAL ACTIVITY OF AUTOTAXIN BY BINDING WITH AUTOTAXIN, AND USE THEREOF” (RIBOMIC INC., published 2017).

Biological target: autotaxin (ENPP2/NPP2) (Homo sapiens, UniProt Q13822 Q13822:36-863)
Experiment: inhibition; LPA production, 0.10 uM aptamer, ~92% serum, 37C 3 h

Binder | activity
CCTGGACGGAACCAGAATACTTTTGGTCTCCAGG (ssDNA, 2'-OMe C7,G9,A14,G15,A19,C20,A32,G33,G34; P-methyl C2; idT 5' and 3') [12(58)] | 69 % inhibition
CCTGGACGGAACCAGAATACTTTTGGTCTCCAGG (ssDNA, 2'-OMe C7,G9,A14,G15,A19,C20,G33,G34; P-methyl A32; idT 5' and 3') [12(63)] | 59 % inhibition
CCTGGACGGAACCAGAATACTTTTGGTCTCCAGG (ssDNA, 2'-OMe C7,G9,A14,G15,A19,C20,U29,A32,G33,G34; idT 5' and 3') [12(71)] | 31 % inhibition
CCTGGACGGAACCAGAATACTTTTGGTCTCCAGG (ssDNA, 2'-OMe C7,G9,A14,G15,A19,C20,A32,G33,G34; PS after C1; idT 5' and 3') [12(107)] | 75 % inhibition
CCTGGACGGAACCAGAATACTTTTGGTCTCCAGG (ssDNA, 2'-OMe C7,G9,A14,G15,A19,C20,A32,G33,G34; P-methyl A6; idT 5' and 3') [12(95)] | 64 % inhibition
CCTGGACGGAACCAGAATACTTTTGGTCTCCAGG (ssDNA, 2'-OMe C7,G9,A14,G15,A19,C20,A32,G33,G34; PS after C13; idT 5' and 3') [12(81)] | 70 % inhibition
CCTGGACGGAACCAGAATACTTTTGGTCTCCAGG (ssDNA, 2'-OMe C7,G9,A14,G15,A19,C20,A32,G33,G34; PS after C28; idT 5' and 3') [12(86)] | 57 % inhibition
CCTGGACGGAACCAGAATACTTTTGGTCTCCAGG (ssDNA, 2'-OMe C7,G9,A14,G15,A19,C20,A32,G33,G34; PS after C12; idT 5' and 3') [12(80)] | 85 % inhibition
CCTGGACGGAACCAGAATACTTTTGGTCTCCAGG (ssDNA, 2'-OMe C7,G9,A14,G15,A19,C20,A32,G33,G34; PS after G15; idT 5' and 3') [12(98)] | 76 % inhibition
CCTGGACGGAACCAGAATACTTTTGGTCTCCAGG (ssDNA, 2'-OMe C7,G9,A14,G15,A19,C20,A32,G33,G34; P-methyl G25; idT 5' and 3') [12(90)] | 63 % inhibition
CCTGGACGGAACCAGAATACTTTTGGTCTCCAGG (ssDNA, 2'-OMe C7,G9,A14,G15,A19,C20,A32,G33,G34; PS after T22; idT 5' and 3') [12(104)] | 74 % inhibition
CCTGGACGGAACCAGAATACTTTTGGTCTCCAGG (ssDNA, 2'-OMe C7,G9,A14,G15,A19,C20,A32,G33,G34; PS after G4; idT 5' and 3') [12(110)] | 63 % inhibition
CCTGGACGGAACCAGAATACTTTTGGTCTCCAGG (ssDNA, 2'-OMe C7,G9,A14,G15,A19,C20,A32,G33,G34; PS after A17; idT 5' and 3') [12(100)] | 80 % inhibition
CCTGGACGGAACCAGAATACTTTTGGTCTCCAGG (ssDNA, 2'-OMe C7,G9,A14,G15,U18,A19,C20,A32,G33,G34; idT 5' and 3') [12(75)] | 65 % inhibition
CCTGGACGGAACCAGAATACTTTTGGTCTCCAGG (ssDNA, 2'-OMe C7,G9,A14,G15,A19,C20,U22,A32,G33,G34; idT 5' and 3') [12(73)] | 11 % inhibition
CCTGGACGGAACCAGAATACTTTTGGTCTCCAGG (ssDNA, 2'-OMe C7,G9,A14,G15,A19,C20,A32,G33,G34; PS after A11; idT 5' and 3') [12(79)] | 37 % inhibition
CCTGGACGGAACCAGAATACTTTTGGTCTCCAGG (ssDNA, 2'-OMe C7,G9,A14,G15,A19,C20,A32,G33,G34; PS after T27; idT 5' and 3') [12(85)] | 68 % inhibition
CCTGGACGGAACCAGAATACTTTTGGTCTCCAGG (ssDNA, 2'-OMe C7,G9,A14,G15,A19,C20,A32,G33,G34; PS after T18; idT 5' and 3') [12(101)] | 81 % inhibition
CCTGGACGGAACCAGAATACTTTTGGTCTCCAGG (ssDNA, 2'-OMe C7,G9,A14,G15,A19,C20,A32,G33,G34; PS after T21; idT 5' and 3') [12(103)] | 88 % inhibition
CCTGGACGGAACCAGAATACTTTTGGTCTCCAGG (ssDNA, 2'-OMe C7,G9,A14,G15,A19,C20,A32,G33,G34; PS after G5; idT 5' and 3') [12(111)] | 60 % inhibition
CCTGGACGGAACCAGAATACTTTTGGTCTCCAGG (ssDNA, 2'-OMe U3,C7,G9,A14,G15,A19,C20,A32,G33,G34; idT 5' and 3') [12(68)] | 53 % inhibition
CCTGGACGGAACCAGAATACTTTTGGTCTCCAGG (ssDNA, 2'-OMe C7,G9,A14,G15,A19,C20,A32,G33,G34; PS after A16; idT 5' and 3') [12(99)] | 81 % inhibition

Binder | activity
CCTGGACGGAACCAGAATACTTTTGGTCTCCAGG (ssDNA, 2'-OMe C7,G9,A14,G15,A19,C20,A32,G33,G34; P-methyl T18; idT 5' and 3') [12(60)] | 50 % inhibition
CCTGGACGGAACCAGAATACTTTTGGTCTCCAGG (ssDNA, 2'-OMe C7,G9,A14,G15,A19,C20,A32,G33,G34; PS after T23; idT 5' and 3') [12(87)] | 70 % inhibition
CCTGGACGGAACCAGAATACTTTTGGTCTCCAGG (ssDNA, 2'-OMe C7,G9,A14,G15,A19,C20,A32,G33,G34; PS after T3; idT 5' and 3') [12(109)] | 68 % inhibition
CCTGGACGGAACCAGAATACTTTTGGTCTCCAGG (ssDNA, 2'-OMe C7,G9,A14,G15,A19,C20,A32,G33,G34; PS after T29; idT 5' and 3') [12(112)] | 69 % inhibition
CCTGGACGGAACCAGAATACTTTTGGTCTCCAGG (ssDNA, 2'-OMe C7,G9,A14,A19,C20,A32,G33,G34; P-methyl G15; idT 5' and 3') [12(64)] | 63 % inhibition
CCTGGACGGAACCAGAATACTTTTGGTCTCCAGG (ssDNA, 2'-OMe C7,G9,A14,G15,A19,C20,A32,G33,G34; P-methyl G4; idT 5' and 3') [12(59)] | 71 % inhibition
CCTGGACGGAACCAGAATACTTTTGGTCTCCAGG (ssDNA, 2'-OMe C7,G9,A14,G15,A19,C20,A32,G33,G34; P-methyl C28; idT 5' and 3') [12(62)] | 75 % inhibition
CCTGGACGGAACCAGAATACTTTTGGTCTCCAGG (ssDNA, 2'-OMe C7,G9,A14,G15,A19,C20,A32,G33,G34; 5' 40 kDa PEG (GL2-400TS) via ssH linker; 3' idT) [12(66)] | 77 % inhibition
CCTGGACGGAACCAGAATACTTTTGGTCTCCAGG (ssDNA, 2'-OMe C7,G9,A14,G15,A19,C20,A32,G33,G34; PS after A6; idT 5' and 3') [12(76)] | 67 % inhibition
CCTGGACGGAACCAGAATACTTTTGGTCTCCAGG (ssDNA, 2'-OMe C7,G9,A14,G15,A19,C20,A32,G33,G34; PS after G25; idT 5' and 3') [12(83)] | 54 % inhibition
CCTGGACGGAACCAGAATACTTTTGGTCTCCAGG (ssDNA, 2'-OMe C7,G9,A14,G15,A19,C20,A32,G33,G34; PS after A10; idT 5' and 3') [12(78)] | 62 % inhibition
CCTGGACGGAACCAGAATACTTTTGGTCTCCAGG (ssDNA, 2'-OMe C7,G9,A14,G15,A19,C20,A32,G33,G34; P-methyl C13; idT 5' and 3') [12(91)] | 58 % inhibition
CCTGGACGGAACCAGAATACTTTTGGTCTCCAGG (ssDNA, 2'-OMe C7,G9,A14,G15,A19,C20,U23,A32,G33,G34; idT 5' and 3') [12(70)] | 9 % inhibition
CCTGGACGGAACCAGAATACTTTTGGTCTCCAGG (ssDNA, 2'-OMe C7,G9,A14,G15,A19,A32,G33,G34; P-methyl C20; idT 5' and 3') [12(65)] | 57 % inhibition
CCTGGACGGAACCAGAATACTTTTGGTCTCCAGG (ssDNA, 2'-OMe C7,G9,A14,G15,A19,C20,U21,A32,G33,G34; idT 5' and 3') [12(74)] | 31 % inhibition
CCTGGACGGAACCAGAATACTTTTGGTCTCCAGG (ssDNA, 2'-OMe C7,G9,A14,G15,A19,C20,A32,G33,G34; PS after C20; idT 5' and 3') [12(102)] | 72 % inhibition
CCTGGACGGAACCAGAATACTTTTGGTCTCCAGG (ssDNA, 2'-OMe C7,G9,A14,G15,A19,C20,A32,G33,G34; P-methyl T29; idT 5' and 3') [12(96)] | 76 % inhibition
CCTGGACGGAACCAGAATACTTTTGGTCTCCAGG (ssDNA, 2'-OMe C7,G9,A14,G15,A19,C20,A32,G33,G34; P-methyl G26; idT 5' and 3') [12(89)] | 48 % inhibition
CCTGGACGGAACCAGAATACTTTTGGTCTCCAGG (ssDNA, 2'-OMe C7,G9,A14,G15,A19,C20,A32,G33,G34; 5' 40 kDa PEG (GL4-400TS) via ssH linker; 3' idT) [12(67)] | 74 % inhibition
CCTGGACGGAACCAGAATACTTTTGGTCTCCAGG (ssDNA, 2'-OMe C7,G9,A14,G15,A19,C20,A32,G33,G34; PS after C2; idT 5' and 3') [12(108)] | 68 % inhibition
CCTGGACGGAACCAGAATACTTTTGGTCTCCAGG (ssDNA, 2'-OMe C7,G9,A14,G15,A19,C20,A32,G33,G34; PS after T24; idT 5' and 3') [12(82)] | 51 % inhibition
CCTGGACGGAACCAGAATACTTTTGGTCTCCAGG (ssDNA, 2'-OMe C7,G9,A14,G15,A19,C20,A32,G33,G34; PS after C7; idT 5' and 3') [12(106)] | 68 % inhibition
